Measurements from patent US20250326839A1 (VIGIL NEUROSCIENCE, published 2025).
Changes are numbered by the printed parent chain.

T1: human TREM2 (human, UniProt Q9NZC2 19-174, limits assumed)
T1 construct: also called triggering receptor expressed on myeloid cells 2
T1 sequence: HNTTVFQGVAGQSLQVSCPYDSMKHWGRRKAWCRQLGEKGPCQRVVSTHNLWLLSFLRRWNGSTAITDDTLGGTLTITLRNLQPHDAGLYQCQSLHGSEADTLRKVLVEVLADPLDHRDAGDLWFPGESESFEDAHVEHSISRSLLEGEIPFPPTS

B1: V1 (antibody, V domains shown)
VH: EVQLVQSGAEVKKPGESLKISCKGSGYSFTSSWIAWVRQMPGKGLEWMGIIYPGDSDTRYSPSFQGQVTISADKSISTAYLQWSSLKASDTAMYFCARSRTFYYDSSDYFDYWGQGTLVTVSS
VL: DIQMTQSPSSVSASVGDRVTITCRASQGISSWLAWYQQKPGKAPKLLIYAASSLTNGVPSRFSGSGSGTDFTLTISSLQPEDFATYFCQQADSYPRTFGQGTKLEIK
notes: also called 6E7 variant V1
B2: V12 (antibody, V domains shown)
VH: B1 VH with S28E, S32Y, T58V, S99G
VL: B1 VL with T55Q, N56R, Y94F
notes: also called 6E7 variant V12
B3: V47 (antibody, V domains shown)
VH: B1 VH with S32Y, S99Q
VL: B1 VL with T55Q, Y94F, R96M
notes: also called 6E7 variant V47
B4: V80 (antibody, V domains shown)
VH: B1 VH with S32Y, S99Q, T101N
VL: B1 VL with T55Q, Y94F
notes: also called 6E7 variant V80
B5: V68 (antibody, V domains shown)
VH: B1 VH with S32Y, S99Q, Y103R
VL: B1 VL with T55Q, Y94F
notes: also called 6E7 variant V68
B6: V78 (antibody, V domains shown)
VH: B1 VH with S28R, S32Y, S99Q
VL: B1 VL with T55Q, Y94F
notes: also called 6E7 variant V78
B7: V42 (antibody, V domains shown)
VH: B1 VH with S32A, S99Q
VL: B1 VL with T55Q, Y94F
notes: also called 6E7 variant V42
B8: V93 (antibody, V domains shown)
VH: B1 VH with S32Y, S99Q
VL: B1 VL with S31G, T55Q, Y94F
notes: also called 6E7 variant V93
B9: V79 (antibody, V domains shown)
VH: B1 VH with S32Y, R59N, S99Q
VL: B1 VL with T55Q, Y94F
notes: also called 6E7 variant V79
B10: V54 (antibody, V domains shown)
VH: B1 VH with S32Q, S99Q
VL: B1 VL with T55Q, Y94F
notes: also called 6E7 variant V54
B11: V34 (antibody, V domains shown)
VH: B1 VH with S32Y, S99Q
VL: B1 VL with T55Q, N56D, Y94F
notes: also called 6E7 variant V34
B12: V33 (antibody, V domains shown)
VH: B1 VH with S32Y, S99Q, Y104G
VL: B1 VL with T55Q, Y94F
notes: also called 6E7 variant V33; LV-16/HV-203
B13: V35 (antibody, V domains shown)
VH: B1 VH with S32Y, S99Q
VL: B1 VL with T55Q, D92Y, Y94F
notes: also called 6E7 variant V35
B14: V43 (antibody, V domains shown)
VH: B1 VH with S32Y, D57G, S99Q
VL: B1 VL with T55Q, Y94F
notes: also called 6E7 variant V43
B15: V67 (antibody, V domains shown)
VH: B1 VH with S32Y, I50M, S99Q
VL: B1 VL with T55Q, Y94F
notes: also called 6E7 variant V67
B16: V55 (antibody, V domains shown)
VH: B1 VH with S32Y, R59I, F64H, S99Q
VL: B1 VL with T55Q, Y94F
notes: also called 6E7 variant V55
B17: V94 (antibody, V domains shown)
VH: B1 VH with S32Y, S99Q
VL: B1 VL with S52A, T55Q, Y94F
notes: also called 6E7 variant V94
B18: V90 (antibody, V domains shown)
VH: B1 VH with S32E, S99Q
VL: B1 VL with S31R, T55Q, Y94F
notes: also called 6E7 variant V90; LV-206/HV-206
B19: V46 (antibody, V domains shown)
VH: B1 VH with S32Y, S99Q
VL: B1 VL with S53T, T55Q, Y94F
notes: also called 6E7 variant V46
B20: V83 (antibody, V domains shown)
VH: B1 VH with S32Y, S99Q
VL: B1 VL with T55Q, D92V, Y94F
notes: also called 6E7 variant V83
B21: V91 (antibody, V domains shown)
VH: B1 VH with S32Y, G54D, S99Q
VL: B1 VL with T55Q, Y94F
notes: also called 6E7 variant V91
B22: V69 (antibody, V domains shown)
VH: B1 VH with S32Y, S99Q
VL: B1 VL with W32Y, T55Q, Y94F
notes: also called 6E7 variant V69
B23: V70 (antibody, V domains shown)
VH: B1 VH with S32Y, S99Q
VL: B1 VL with S52G, T55Q, Y94F
notes: also called 6E7 variant V70; LV-204/HV-15
B24: V71 (antibody, V domains shown)
VH: B1 VH with S32Y, S99Q
VL: B1 VL with T55Q, Y94E
notes: also called 6E7 variant V71
B25: V92 (antibody, V domains shown)
VH: B1 VH with S32Y, S99Q, Y103H
VL: B1 VL with T55Q, Y94F
notes: also called 6E7 variant V92
B26: V57 (antibody, V domains shown)
VH: B1 VH with S32Y, S99Q
VL: B1 VL with R24A, T55Q, Y94F
notes: also called 6E7 variant V57; LV-203/HV-15
B27: V32 (antibody, V domains shown)
VH: B1 VH with S32Y, P62N, S99Q
VL: B1 VL with T55Q, Y94F
notes: also called 6E7 variant V32
B28: V56 (antibody, V domains shown)
VH: B1 VH with S32Y, S61Q, S99Q
VL: B1 VL with T55Q, Y94F
notes: also called 6E7 variant V56
B29: V81 (antibody, V domains shown)
VH: B1 VH with S32Y, S99Q
VL: B1 VL with W32L, T55Q, Y94F
notes: also called 6E7 variant V81
B30: V45 (antibody, V domains shown)
VH: B1 VH with S32Y, S99Q
VL: B1 VL with W32F, T55Q, Y94F
notes: also called 6E7 variant V45
B31: V66 (antibody, V domains shown)
VH: B1 VH with Y27T, S32Y, S99Q
VL: B1 VL with T55Q, Y94F
notes: also called 6E7 variant V66
B32: V44 (antibody, V domains shown)
VH: B1 VH with S32Y, G54S, S99Q
VL: B1 VL with T55Q, Y94F
notes: also called 6E7 variant V44; LV-16/HV-204
B33: V82 (antibody, V domains shown)
VH: B1 VH with S32Y, S99Q
VL: B1 VL with A51G, T55Q, Y94F
notes: also called 6E7 variant V82
B34: V58 (antibody, V domains shown)
VH: B1 VH with S32Y, S99Q
VL: B1 VL with A50K, T55Q, Y94F
notes: also called 6E7 variant V58
B35: V59 (antibody, V domains shown)
VH: B1 VH with S32Y, S99Q
VL: B1 VL with T55Q, Q89M, Y94F
notes: also called 6E7 variant V59

What follows are binders tested against T1, human TREM2 (assay: 2nd screen, 10 nM).

Going from B1 to B2, the “Binding Signal” value rises from 1.92 fold over 6E7 parental antibody to 2.58 fold over 6E7 parental antibody.

What follows are binders tested against T1, human TREM2 (assay: 2nd screen, 2 nM).

For B1, the “Binding Signal” value was 1.29 fold over 6E7 parental antibody.

These binders were tested against T1, human TREM2 (assay: 1st screen, 10 nM Ab).

For B1, the “Binding Signal” value was 1.68 fold over 6E7 parental antibody.

What follows are binders tested against T1, human TREM2 (assay: 1st screen, 110 nM Ab).

First: B3
Second: B4
The “Binding Signal” value of the first is lower: 0.42 fold over 6E7 parental antibody for the first, 0.59 fold over 6E7 parental antibody for the second.

First: B5
Second: B6
The “Binding Signal” value of the first is lower: 0.44 fold over 6E7 parental antibody for the first, 0.86 fold over 6E7 parental antibody for the second.

Compared with B7, B8 is lower in “Binding Signal” value: 0.45 fold over 6E7 parental antibody for the first, 0.35 fold over 6E7 parental antibody for the second.

Compared with B9, B10 is lower in “Binding Signal” value: 0.7 fold over 6E7 parental antibody for the first, 0.55 fold over 6E7 parental antibody for the second.

Compared with B11, B12 is lower in “Binding Signal” value: 0.34 fold over 6E7 parental antibody for the first, 0.23 fold over 6E7 parental antibody for the second.

Compared with B13, B14 is lower in “Binding Signal” value: 0.21 fold over 6E7 parental antibody for the first, 0.2 fold over 6E7 parental antibody for the second.

Compared with B15, B16 is lower in “Binding Signal” value: 0.8 fold over 6E7 parental antibody for the first, 0.24 fold over 6E7 parental antibody for the second.

First: B17
Second: B18
The “Binding Signal” value of the first is lower: 0.31 fold over 6E7 parental antibody for the first, 0.33 fold over 6E7 parental antibody for the second.

Going from B19 to B20, the “Binding Signal” value falls from 0.83 fold over 6E7 parental antibody to 0.2 fold over 6E7 parental antibody.

Compared with B21, B22 is higher in “Binding Signal” value: 0.25 fold over 6E7 parental antibody for the first, 0.41 fold over 6E7 parental antibody for the second.

Compared with B23, B24 is lower in “Binding Signal” value: 0.79 fold over 6E7 parental antibody for the first, 0.37 fold over 6E7 parental antibody for the second.

First: B25
Second: B26
The “Binding Signal” value of the first is lower: 0.22 fold over 6E7 parental antibody for the first, 0.84 fold over 6E7 parental antibody for the second.

First: B27
Second: B28
The “Binding Signal” value of the first is higher: 0.82 fold over 6E7 parental antibody for the first, 0.23 fold over 6E7 parental antibody for the second.

First: B29
Second: B30
The “Binding Signal” value of the first is lower: 0.17 fold over 6E7 parental antibody for the first, 0.43 fold over 6E7 parental antibody for the second.

First: B31
Second: B32
The “Binding Signal” value of the first is lower: 0.25 fold over 6E7 parental antibody for the first, 0.65 fold over 6E7 parental antibody for the second.

First: B33
Second: B34
The “Binding Signal” value of the first is higher: 0.3 fold over 6E7 parental antibody for the first, 0.28 fold over 6E7 parental antibody for the second.

With B35 the “Binding Signal” value was 0.19 fold over 6E7 parental antibody.

These binders were tested against T1, human TREM2 (assay: 2nd screen, 100 nM).

Going from B3 to B4, the “Binding Signal” value rises from 0.47 fold over 6E7 parental antibody to 0.5 fold over 6E7 parental antibody.

First: B5
Second: B6
The “Binding Signal” value of the first is lower: 0.43 fold over 6E7 parental antibody for the first, 1.11 fold over 6E7 parental antibody for the second.

Compared with B7, B8 is higher in “Binding Signal” value: 0.41 fold over 6E7 parental antibody for the first, 1.05 fold over 6E7 parental antibody for the second.

Going from B9 to B10, the “Binding Signal” value rises from 0.52 fold over 6E7 parental antibody to 0.54 fold over 6E7 parental antibody.

Compared with B11, B12 is lower in “Binding Signal” value: 1.02 fold over 6E7 parental antibody for the first, 0.34 fold over 6E7 parental antibody for the second.

First: B13
Second: B14
The “Binding Signal” value of the first is lower: 0.29 fold over 6E7 parental antibody for the first, 0.33 fold over 6E7 parental antibody for the second.

Going from B15 to B16, the “Binding Signal” value falls from 0.84 fold over 6E7 parental antibody to 0.66 fold over 6E7 parental antibody.

Compared with B17, B18 is lower in “Binding Signal” value: 0.87 fold over 6E7 parental antibody for the first, 0.36 fold over 6E7 parental antibody for the second.

Compared with B19, B20 is lower in “Binding Signal” value: 0.96 fold over 6E7 parental antibody for the first, 0.29 fold over 6E7 parental antibody for the second.

Going from B21 to B22, the “Binding Signal” value falls from 0.61 fold over 6E7 parental antibody to 0.4 fold over 6E7 parental antibody.

First: B23
Second: B24
The “Binding Signal” value of the first is higher: 0.84 fold over 6E7 parental antibody for the first, 0.48 fold over 6E7 parental antibody for the second.

Going from B25 to B26, the “Binding Signal” value rises from 0.65 fold over 6E7 parental antibody to 0.85 fold over 6E7 parental antibody.

Compared with B27, B28 is lower in “Binding Signal” value: 0.89 fold over 6E7 parental antibody for the first, 0.59 fold over 6E7 parental antibody for the second.

First: B29
Second: B30
The “Binding Signal” value of the first is lower: 0.23 fold over 6E7 parental antibody for the first, 0.53 fold over 6E7 parental antibody for the second.

First: B31
Second: B32
The “Binding Signal” value of the first is higher: 0.74 fold over 6E7 parental antibody for the first, 0.52 fold over 6E7 parental antibody for the second.

Compared with B33, B34 is lower in “Binding Signal” value: 0.79 fold over 6E7 parental antibody for the first, 0.68 fold over 6E7 parental antibody for the second.

With B35 the “Binding Signal” value was 0.6 fold over 6E7 parental antibody.
